From US20050288217A1

Target: αVβ3 integrin (UniProt P06756)
Assay: binding to αVβ3, against the unsubstituted sequence

αVβ3 integrin, sequence (P06756 31-1048, chain 1 of 2): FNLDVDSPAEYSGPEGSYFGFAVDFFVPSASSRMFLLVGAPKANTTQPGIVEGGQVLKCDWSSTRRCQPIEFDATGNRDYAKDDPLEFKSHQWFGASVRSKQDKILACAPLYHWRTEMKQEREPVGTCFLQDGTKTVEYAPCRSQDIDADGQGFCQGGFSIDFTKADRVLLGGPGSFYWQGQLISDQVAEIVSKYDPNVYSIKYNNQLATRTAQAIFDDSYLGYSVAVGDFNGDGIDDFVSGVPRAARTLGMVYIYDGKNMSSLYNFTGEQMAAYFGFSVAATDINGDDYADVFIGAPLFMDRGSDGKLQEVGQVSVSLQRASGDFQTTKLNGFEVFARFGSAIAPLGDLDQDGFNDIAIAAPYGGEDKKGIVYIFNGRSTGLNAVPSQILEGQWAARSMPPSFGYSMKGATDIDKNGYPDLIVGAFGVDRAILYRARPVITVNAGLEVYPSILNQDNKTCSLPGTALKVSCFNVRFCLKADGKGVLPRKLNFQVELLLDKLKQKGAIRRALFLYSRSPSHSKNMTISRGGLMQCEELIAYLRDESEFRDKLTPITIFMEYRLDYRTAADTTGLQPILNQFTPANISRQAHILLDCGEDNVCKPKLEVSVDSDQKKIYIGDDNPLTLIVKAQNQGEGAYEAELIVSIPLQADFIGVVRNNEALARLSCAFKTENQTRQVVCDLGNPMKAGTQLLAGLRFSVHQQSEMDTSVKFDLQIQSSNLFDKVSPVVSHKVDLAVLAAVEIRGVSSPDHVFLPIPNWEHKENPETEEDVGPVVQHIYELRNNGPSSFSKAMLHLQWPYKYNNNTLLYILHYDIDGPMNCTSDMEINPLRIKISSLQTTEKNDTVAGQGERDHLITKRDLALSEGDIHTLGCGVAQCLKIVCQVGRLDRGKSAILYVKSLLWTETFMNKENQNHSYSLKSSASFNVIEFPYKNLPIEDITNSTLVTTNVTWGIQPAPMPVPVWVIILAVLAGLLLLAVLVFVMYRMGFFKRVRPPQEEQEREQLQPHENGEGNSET
αVβ3 integrin, sequence (P05106 27-788, chain 2 of 2, further chain): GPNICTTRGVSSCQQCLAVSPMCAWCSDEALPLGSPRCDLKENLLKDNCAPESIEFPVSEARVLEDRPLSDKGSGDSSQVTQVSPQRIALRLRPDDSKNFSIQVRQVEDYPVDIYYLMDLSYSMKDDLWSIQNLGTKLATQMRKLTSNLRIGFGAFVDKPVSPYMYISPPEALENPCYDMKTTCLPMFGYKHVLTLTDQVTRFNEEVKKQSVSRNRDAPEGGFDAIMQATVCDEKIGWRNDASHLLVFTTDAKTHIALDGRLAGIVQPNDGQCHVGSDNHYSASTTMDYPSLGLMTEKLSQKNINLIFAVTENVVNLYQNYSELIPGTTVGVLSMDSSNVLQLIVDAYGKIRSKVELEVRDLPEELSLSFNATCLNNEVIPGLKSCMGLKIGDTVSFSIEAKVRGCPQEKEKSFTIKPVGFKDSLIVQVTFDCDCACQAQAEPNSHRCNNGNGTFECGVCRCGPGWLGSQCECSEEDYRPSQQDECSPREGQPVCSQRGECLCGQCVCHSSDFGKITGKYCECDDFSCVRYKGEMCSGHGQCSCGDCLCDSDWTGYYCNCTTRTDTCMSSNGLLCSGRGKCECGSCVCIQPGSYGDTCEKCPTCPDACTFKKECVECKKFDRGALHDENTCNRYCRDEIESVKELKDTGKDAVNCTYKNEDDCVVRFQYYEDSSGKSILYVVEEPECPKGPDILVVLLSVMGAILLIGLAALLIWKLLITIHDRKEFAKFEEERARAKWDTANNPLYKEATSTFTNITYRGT

- decrease in binding: 70%
Substance: vitronectin sequence with the single arginine at position 374 changed to alanine (peptide)
